The source of these data is patent US20140087995A1 (published 2014).

Numbered stars: 1 amine (or outer) side, 2 acyl side, 3 side chain; on linkers, the order of the positions; unused ones are H or OH. Bridge positions count the residues as written; N and C are the ends. Side chains are listed from the residue outwards. Ends that are not written are not given here. * marks the point of attachment. C20 diacid = O=C(O)CCCCCCCCCCCCCCCCCCC(=O)*; γGlu = O=C(O)[C@H](CCC(=O)[*:2])N[*:1]; AEEA = NCCOCCOCC(=O)O

The target in test [1] is T1, rat calcitonin receptor (rat, UniProt P32214 25-516).
T1 construct: whole, on cells; Used as membranes prepared from BHK tk'ts 13 cells transiently transfected with the rat calcitonin receptor (Assay VIII); also called rCTR; rat calcitonin (a) receptor
T1 sequence (looked up): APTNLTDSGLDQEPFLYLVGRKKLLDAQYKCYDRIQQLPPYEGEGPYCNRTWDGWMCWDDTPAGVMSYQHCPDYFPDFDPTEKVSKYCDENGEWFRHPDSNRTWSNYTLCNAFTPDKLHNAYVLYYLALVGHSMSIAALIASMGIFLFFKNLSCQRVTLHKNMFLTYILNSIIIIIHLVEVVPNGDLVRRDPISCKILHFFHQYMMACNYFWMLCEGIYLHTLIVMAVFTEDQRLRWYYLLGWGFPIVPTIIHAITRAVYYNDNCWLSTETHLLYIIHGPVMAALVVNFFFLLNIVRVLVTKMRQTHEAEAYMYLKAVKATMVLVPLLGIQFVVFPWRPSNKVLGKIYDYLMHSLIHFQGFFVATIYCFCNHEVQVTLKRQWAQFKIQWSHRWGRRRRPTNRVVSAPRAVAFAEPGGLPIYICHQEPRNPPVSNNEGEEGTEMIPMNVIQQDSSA
As to the kind of experiment: SPA competition with 125I-calcitonin, membranes of BHK cells with rat CTR (Assay VIII).

Test [2] concerns the target T2, human calcitonin receptor (human, UniProt P30988 25-474).
T2 construct: whole, on cells; Used as membranes prepared from a BHK tk'ts 13 cell line stably transfected with the human calcitonin receptor (Assay VII); also called hCTR; hCT
T2 sequence (looked up): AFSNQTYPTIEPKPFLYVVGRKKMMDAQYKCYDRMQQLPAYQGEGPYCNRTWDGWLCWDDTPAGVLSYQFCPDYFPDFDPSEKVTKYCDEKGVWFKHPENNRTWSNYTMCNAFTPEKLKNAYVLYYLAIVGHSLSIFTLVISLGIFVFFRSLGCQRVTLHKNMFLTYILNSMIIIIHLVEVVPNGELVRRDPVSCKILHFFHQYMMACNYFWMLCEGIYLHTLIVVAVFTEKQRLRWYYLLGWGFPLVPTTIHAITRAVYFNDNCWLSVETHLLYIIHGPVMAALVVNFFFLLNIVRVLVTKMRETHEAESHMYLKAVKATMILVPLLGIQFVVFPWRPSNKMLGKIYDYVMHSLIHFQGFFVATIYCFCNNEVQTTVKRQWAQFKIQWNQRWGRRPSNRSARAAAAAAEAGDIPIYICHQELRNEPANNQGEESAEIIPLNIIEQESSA
Description: IC50 on human CTR divided by IC50 on human amylin receptor (Assays VII/V). The essentials: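 Competition binding by SPA uses membrane preparations (35 ng/μL final) in pH 7.4 Hepes buffer with 1 mM CaCl2 and 5 mM MgCl₂. Incubation lasts 120 min at 25° C, and IC₅₀ comes from one-site fitting.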

Test [3] has as its target T1, rat calcitonin receptor. As to the kind of experiment: IC50 on rat CTR divided by IC50 on rat amylin receptor (Assays VIII/VI).
Test [4] addresses T3, rat amylin receptor (rat calcitonin receptor + rat RAMP 3) (rat, UniProt P32214 25-516; Q9JJ73 23-147).
T3 construct: whole, on cells; Used as membranes prepared from BHK tk'ts 13 cells transiently transfected with rat calcitonin receptor and rat RAMP 3 (Assay VI); also called rAmylin-R; rat amylin 3(a) receptor
T3 sequence (looked up) 1: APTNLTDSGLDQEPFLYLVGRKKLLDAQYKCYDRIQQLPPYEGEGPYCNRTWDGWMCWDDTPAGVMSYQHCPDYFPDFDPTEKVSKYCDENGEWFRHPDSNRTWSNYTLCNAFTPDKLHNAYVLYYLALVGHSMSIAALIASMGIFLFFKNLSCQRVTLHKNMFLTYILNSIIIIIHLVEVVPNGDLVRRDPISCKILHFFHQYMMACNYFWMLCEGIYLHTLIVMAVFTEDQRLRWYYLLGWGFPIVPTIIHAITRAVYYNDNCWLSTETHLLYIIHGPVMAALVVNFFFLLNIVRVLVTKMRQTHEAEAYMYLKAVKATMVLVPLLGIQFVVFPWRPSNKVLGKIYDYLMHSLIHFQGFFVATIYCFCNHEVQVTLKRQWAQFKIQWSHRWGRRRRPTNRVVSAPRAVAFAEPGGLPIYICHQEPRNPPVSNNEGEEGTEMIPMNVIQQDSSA
T3 sequence (looked up) 2: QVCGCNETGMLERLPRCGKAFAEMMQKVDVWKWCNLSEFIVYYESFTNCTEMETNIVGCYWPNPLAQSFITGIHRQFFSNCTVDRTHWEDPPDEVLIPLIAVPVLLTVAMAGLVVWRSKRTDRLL
As to the kind of experiment: SPA competition with 125I-rat amylin, membranes of BHK cells with rat CTR + rat RAMP3 (Assay VI).

B1: N^ε1-[2-[2-[2-[[(4S)-4-carboxy-4-(19-carboxynonadecanoylamino)butanoyl]amino]ethoxy]ethoxy]acetyl]-[His14,Arg17,Pro21,Pro27,His34]-h-amylin (peptide)
peptide: K([AEEA-γGlu-C20 diacid])CNTATCATQRLAHFLRHSSPNFGAIPSSTNVGHNTY-NH2
modifications: disulfide 2-7; N-terminus assumed
SMILES: CC[C@H](C)[C@H](NC(=O)[C@H](C)NC(=O)CNC(=O)[C@H](Cc1ccccc1)NC(=O)[C@H](CC(N)=O)NC(=O)[C@@H]1CCCN1C(=O)[C@H](CO)NC(=O)[C@H](CO)NC(=O)[C@H](Cc1c[nH]cn1)NC(=O)[C@H](CCCNC(=N)N)NC(=O)[C@H](CC(C)C)NC(=O)[C@H](Cc1ccccc1)NC(=O)[C@H](Cc1c[nH]cn1)NC(=O)[C@H](C)NC(=O)[C@H](CC(C)C)NC(=O)[C@H](CCCNC(=N)N)NC(=O)[C@H](CCC(N)=O)NC(=O)[C@@H](NC(=O)[C@H](C)NC(=O)[C@@H]1CSSC[C@H](NC(=O)[C@@H](N)CCCCNC(=O)COCCOCCNC(=O)CC[C@H](NC(=O)CCCCCCCCCCCCCCCCCCC(=O)O)C(=O)O)C(=O)N[C@@H](CC(N)=O)C(=O)N[C@@H]([C@@H](C)O)C(=O)N[C@@H](C)C(=O)N[C@@H]([C@@H](C)O)C(=O)N1)[C@@H](C)O)C(=O)N1CCC[C@H]1C(=O)N[C@@H](CO)C(=O)N[C@@H](CO)C(=O)N[C@H](C(=O)N[C@@H](CC(N)=O)C(=O)N[C@H](C(=O)NCC(=O)N[C@@H](Cc1c[nH]cn1)C(=O)N[C@@H](CC(N)=O)C(=O)N[C@H](C(=O)N[C@@H](Cc1ccc(O)cc1)C(N)=O)[C@@H](C)O)C(C)C)[C@@H](C)O
notes: Analogue of human amylin; also called compound 80
By IC50 is commonly meant the concentration at which inhibition is half-maximal. B1: the IC50 with rat calcitonin receptor [1] was 60.4 nM; in test [4], 1.67 nM. The “Ratio hCT/hAmylin binding” value in test [2] stood at 68.1. For the same molecule, the “Ratio rCT/rAmylin binding” value with rat calcitonin receptor [3] turned out to be 36.2.

B2: N^ε1-[2-[2-[2-[[(4S)-4-carboxy-4-(19-carboxynonadecanoylamino)butanoyl]amino]ethoxy]ethoxy]acetyl]-[His14,Arg17,Pro21,Pro27,Pro31]-h-amylin (peptide)
peptide: K([AEEA-γGlu-C20 diacid])CNTATCATQRLAHFLRHSSPNFGAIPSSTPVGSNTY-NH2
modifications: disulfide 2-7; N-terminus assumed
SMILES: CC[C@H](C)[C@H](NC(=O)[C@H](C)NC(=O)CNC(=O)[C@H](Cc1ccccc1)NC(=O)[C@H](CC(N)=O)NC(=O)[C@@H]1CCCN1C(=O)[C@H](CO)NC(=O)[C@H](CO)NC(=O)[C@H](Cc1c[nH]cn1)NC(=O)[C@H](CCCNC(=N)N)NC(=O)[C@H](CC(C)C)NC(=O)[C@H](Cc1ccccc1)NC(=O)[C@H](Cc1c[nH]cn1)NC(=O)[C@H](C)NC(=O)[C@H](CC(C)C)NC(=O)[C@H](CCCNC(=N)N)NC(=O)[C@H](CCC(N)=O)NC(=O)[C@@H](NC(=O)[C@H](C)NC(=O)[C@@H]1CSSC[C@H](NC(=O)[C@@H](N)CCCCNC(=O)COCCOCCNC(=O)CC[C@H](NC(=O)CCCCCCCCCCCCCCCCCCC(=O)O)C(=O)O)C(=O)N[C@@H](CC(N)=O)C(=O)N[C@@H]([C@@H](C)O)C(=O)N[C@@H](C)C(=O)N[C@@H]([C@@H](C)O)C(=O)N1)[C@@H](C)O)C(=O)N1CCC[C@H]1C(=O)N[C@@H](CO)C(=O)N[C@@H](CO)C(=O)N[C@H](C(=O)N1CCC[C@H]1C(=O)N[C@H](C(=O)NCC(=O)N[C@@H](CO)C(=O)N[C@@H](CC(N)=O)C(=O)N[C@H](C(=O)N[C@@H](Cc1ccc(O)cc1)C(N)=O)[C@@H](C)O)C(C)C)[C@@H](C)O
notes: Analogue of human amylin; also called compound 61
For B2, the IC50 turned out to be 33.4 nM with rat calcitonin receptor [1] and 0.842 nM in test [4]. Further, the “Ratio hCT/hAmylin binding” value in test [2] was found to be 66.7. The “Ratio rCT/rAmylin binding” value in the test with rat calcitonin receptor [3] was 39.7.

B3: N^ε1-[2-[2-[2-[[(4S)-4-carboxy-4-(19-carboxynonadecanoylamino)butanoyl]amino]ethoxy]ethoxy]acetyl]-[His14,Arg17,Pro21,Pro27]-h-amylin (peptide)
peptide: K([AEEA-γGlu-C20 diacid])CNTATCATQRLAHFLRHSSPNFGAIPSSTNVGSNTY-NH2
modifications: disulfide 2-7; N-terminus assumed
SMILES: CC[C@H](C)[C@H](NC(=O)[C@H](C)NC(=O)CNC(=O)[C@H](Cc1ccccc1)NC(=O)[C@H](CC(N)=O)NC(=O)[C@@H]1CCCN1C(=O)[C@H](CO)NC(=O)[C@H](CO)NC(=O)[C@H](Cc1c[nH]cn1)NC(=O)[C@H](CCCNC(=N)N)NC(=O)[C@H](CC(C)C)NC(=O)[C@H](Cc1ccccc1)NC(=O)[C@H](Cc1c[nH]cn1)NC(=O)[C@H](C)NC(=O)[C@H](CC(C)C)NC(=O)[C@H](CCCNC(=N)N)NC(=O)[C@H](CCC(N)=O)NC(=O)[C@@H](NC(=O)[C@H](C)NC(=O)[C@@H]1CSSC[C@H](NC(=O)[C@@H](N)CCCCNC(=O)COCCOCCNC(=O)CC[C@H](NC(=O)CCCCCCCCCCCCCCCCCCC(=O)O)C(=O)O)C(=O)N[C@@H](CC(N)=O)C(=O)N[C@@H]([C@@H](C)O)C(=O)N[C@@H](C)C(=O)N[C@@H]([C@@H](C)O)C(=O)N1)[C@@H](C)O)C(=O)N1CCC[C@H]1C(=O)N[C@@H](CO)C(=O)N[C@@H](CO)C(=O)N[C@H](C(=O)N[C@@H](CC(N)=O)C(=O)N[C@H](C(=O)NCC(=O)N[C@@H](CO)C(=O)N[C@@H](CC(N)=O)C(=O)N[C@H](C(=O)N[C@@H](Cc1ccc(O)cc1)C(N)=O)[C@@H](C)O)C(C)C)[C@@H](C)O
notes: Analogue of human amylin; also called compound 69
On to B3, for which the IC50 in the test with rat calcitonin receptor [1] was 46.8 nM; in test [4], 0.45 nM. Further, the “Ratio hCT/hAmylin binding” value in test [2] amounted to 65.3. Also, in the test with rat calcitonin receptor [3], the “Ratio rCT/rAmylin binding” value came out at 104.

B4: N^ε1-[2-[2-[2-[[(4S)-4-carboxy-4-(19-carboxynonadecanoylamino)butanoyl]amino]ethoxy]ethoxy]acetyl]-[His14,Arg17,Pro21,Pro27,Pro34]-h-amylin (peptide)
peptide: K([AEEA-γGlu-C20 diacid])CNTATCATQRLAHFLRHSSPNFGAIPSSTNVGPNTY-NH2
modifications: disulfide 2-7; N-terminus assumed
SMILES: CC[C@H](C)[C@H](NC(=O)[C@H](C)NC(=O)CNC(=O)[C@H](Cc1ccccc1)NC(=O)[C@H](CC(N)=O)NC(=O)[C@@H]1CCCN1C(=O)[C@H](CO)NC(=O)[C@H](CO)NC(=O)[C@H](Cc1c[nH]cn1)NC(=O)[C@H](CCCNC(=N)N)NC(=O)[C@H](CC(C)C)NC(=O)[C@H](Cc1ccccc1)NC(=O)[C@H](Cc1c[nH]cn1)NC(=O)[C@H](C)NC(=O)[C@H](CC(C)C)NC(=O)[C@H](CCCNC(=N)N)NC(=O)[C@H](CCC(N)=O)NC(=O)[C@@H](NC(=O)[C@H](C)NC(=O)[C@@H]1CSSC[C@H](NC(=O)[C@@H](N)CCCCNC(=O)COCCOCCNC(=O)CC[C@H](NC(=O)CCCCCCCCCCCCCCCCCCC(=O)O)C(=O)O)C(=O)N[C@@H](CC(N)=O)C(=O)N[C@@H]([C@@H](C)O)C(=O)N[C@@H](C)C(=O)N[C@@H]([C@@H](C)O)C(=O)N1)[C@@H](C)O)C(=O)N1CCC[C@H]1C(=O)N[C@@H](CO)C(=O)N[C@@H](CO)C(=O)N[C@H](C(=O)N[C@@H](CC(N)=O)C(=O)N[C@H](C(=O)NCC(=O)N1CCC[C@H]1C(=O)N[C@@H](CC(N)=O)C(=O)N[C@H](C(=O)N[C@@H](Cc1ccc(O)cc1)C(N)=O)[C@@H](C)O)C(C)C)[C@@H](C)O
notes: Analogue of human amylin; also called compound 68
With B4, the IC50 is 28.5 nM in the test with rat calcitonin receptor [1] and 0.234 nM in test [4]. Also, in test [2], the “Ratio hCT/hAmylin binding” value amounted to 64.4. Besides, in the test with rat calcitonin receptor [3], the “Ratio rCT/rAmylin binding” value is 122.
